Where a chain is given by its changes, count along the chain named. Where two headings read alike, the source gives them in different places.
B1: RANTES derivative: signature sequence SEQ ID NO: 26 fused to positions 10-68 of native RANTES (SEQ ID NO: 1) (ligand)
chain: QGPLSGWLQVCCFAYIARPLPRAHIKEYFYTSGKCSNPAVVFVTRKNRQVCANPEKKWVREYINSLEMS
B2: RANTES derivative: signature sequence SEQ ID NO: 28 fused to positions 10-68 of native RANTES (SEQ ID NO: 1) (ligand)
chain: B1 chain with L4P, S5G, G6S, L8S, Q9S
B3: RANTES derivative: signature sequence SEQ ID NO: 29 fused to positions 10-68 of native RANTES (SEQ ID NO: 1) (ligand)
chain: B1 chain with L4P, S5L, W7S, L8M, Q9G, V10P

Legend:
CCR5 [1] = biological target: CCR5 (UniProt P51681); experiment: cell-based or functional assay
CCR5 [2] = biological target: CCR5 (UniProt P51681); experiment: cell-based or functional assay; remark: listed apart in the source

Molecule | CCR5 sequestration (%) (% of control surface CCR5) (CCR5 [1]) | CCR5 signalling (%) (% of Emax of PSC-RANTES) (CCR5 [1]) | anti-HIV potency (IC50, nM) by cell fusion assay (CCR5 [1]) [nM] | anti-HIV potency (IC50, nM) by viral replication assay (CCR5 [1]) [nM] | CCR5 sequestration (%) (% of control surface CCR5) (CCR5 [2]) | CCR5 signalling (%) (% of Emax of PSC-RANTES) (CCR5 [2]) | anti-HIV potency (IC50, nM) by cell fusion assay (CCR5 [2]) [nM] | anti-HIV potency (IC50, nM) by viral replication assay (CCR5 [2]) [nM]
NNY-RANTES (n-nonanoyl-RANTES(2-68)) (from UniProt P13501 25-91) (ligand) | 77 | 84.5 | 0.29 |  |  |  |  | 
PSC-RANTES (ligand) | 75 | 100 | 0.02 | 0.281 |  |  |  | 
Met-RANTES (from UniProt P13501 24-91) (ligand) | 26 | 15 | 75.1 |  |  |  |  | 
AOP-RANTES, the aminooxypentane oxime of [glyoxylyl]1RANTES(2-68) (from UniProt P13501 25-91) (ligand) | 71 | 80.7 | 1.12 |  |  |  |  | 
B1 |  |  |  |  | 41 | 9.4 | 0.58 | 
B2 |  |  |  |  | 59 | 45 | 0.03 | 0.213
B3 |  |  |  |  | 36 | 22.6 | 0.39 | 

Source: patent publication US20090317363A1
